Laboratory results as given in patent publication US20160109449A1 (JULIUS MAXIMILIANS UNIVERSITAET WUERZBURG, published 2016).

Key:
[1] = molecular target: T1, IsaA oligopeptide SEQ ID NO: 13 (Staphylococcus aureus); test: peptide array on glass slide, fluorescent secondary antibody
T1 sequence (peptide): TGYAAGTGHQAHAAE

[2] = molecular target: T2, IsaA oligopeptide SEQ ID NO: 60 (Staphylococcus aureus); test: as above
T2 sequence (peptide): GWGPTNTVDQQINAA

[3] = molecular target: T3, IsaA oligopeptide SEQ ID NO: 30 (Staphylococcus aureus); test: as above
T3 sequence (peptide): EAANGQTAGFSNVAG

[4] = molecular target: T4, IsaA oligopeptide SEQ ID NO: 31 (Staphylococcus aureus); test: as above
T4 sequence (peptide): GQTAGFSNVAGADYT

[5] = molecular target: T5, IsaA oligopeptide SEQ ID NO: 16 (Staphylococcus aureus); test: as above
T5 sequence (peptide): AAEVNVDQAHLVDLA

[6] = molecular target: T6, IsaA oligopeptide SEQ ID NO: 28 (Staphylococcus aureus); test: as above
T6 sequence (peptide): GTTWSWSYEAANGQT

[7] = molecular target: T7, IsaA oligopeptide SEQ ID NO: 29 (Staphylococcus aureus); test: as above
T7 sequence (peptide): SWSYEAANGQTAGFS

[8] = molecular target: IsaA oligopeptide SEQ ID NO: 40 (Staphylococcus aureus); test: as above
[9] = molecular target: T8, IsaA oligopeptide SEQ ID NO: 36 (Staphylococcus aureus); test: as above
T8 sequence (peptide): GSDVQSVSYNAQSSN

[10] = molecular target: T9, IsaA oligopeptide SEQ ID NO: 14 (Staphylococcus aureus); test: as above
T9 sequence (peptide): AGTGHQAHAAEVNVD

[11] = molecular target: T10, IsaA oligopeptide SEQ ID NO: 43 (Staphylococcus aureus); test: as above
T10 construct: Synthetic 15-mer of IsaA, spotted on a glass slide
T10 peptide: YSTSTTSSSVRLSNG
Procedure: (§1) Each oligopeptide was immobilized on a small spot on a glass side. Binding of the monoclonal antibodies secreted by the hybridoma cell line DSM ACC2987 and of control antibodies to these spots was examined upon incubation with these antibodies by binding of fluorescence labeled secondary antibodies and detecting fluorescence intensities.

[12] = molecular target: T11, IsaA oligopeptide SEQ ID NO: 52 (Staphylococcus aureus); test: as above
T11 construct: Synthetic 15-mer of IsaA, spotted on a glass slide
T11 peptide: ASTWAAIIARESNGQ
Procedure: as §1

[13] = molecular target: T12, IsaA oligopeptide SEQ ID NO: 19 (Staphylococcus aureus); test: as above
T12 construct: Synthetic 15-mer of IsaA, spotted on a glass slide
T12 peptide: DLAHNHQDQLNAAPI
Procedure: as §1

[14] = molecular target: T13, IsaA oligopeptide SEQ ID NO: 57 (Staphylococcus aureus); test: as above
T13 construct: Synthetic 15-mer of IsaA, spotted on a glass slide
T13 peptide: PSGASGLFQTMPGWG
Procedure: as §1

[15] = molecular target: T14, IsaA oligopeptide SEQ ID NO: 32 (Staphylococcus aureus); test: as above
T14 construct: Synthetic 15-mer of IsaA, spotted on a glass slide
T14 peptide: GFSNVAGADYTTSYN
Procedure: as §1

[16] = molecular target: T15, IsaA oligopeptide SEQ ID NO: 49 (Staphylococcus aureus); test: as above
T15 construct: Synthetic 15-mer of IsaA, spotted on a glass slide
T15 peptide: AAQIMAQRTGVSAST
Procedure: as §1

[17] = molecular target: T16, IsaA oligopeptide SEQ ID NO: 42 (Staphylococcus aureus); test: as above
T16 construct: Synthetic 15-mer of IsaA, spotted on a glass slide
T16 peptide: TYHNYSTSTTSSSVR
Procedure: as §1

[18] = molecular target: T17, IsaA oligopeptide SEQ ID NO: 34 (Staphylococcus aureus); test: as above
T17 construct: Synthetic 15-mer of IsaA, spotted on a glass slide
T17 peptide: DYTTSYNQGSDVQSV
Procedure: as §1

[19] = molecular target: T18, IsaA oligopeptide SEQ ID NO: 54 (Staphylococcus aureus); test: as above
T18 construct: Synthetic 15-mer of IsaA, spotted on a glass slide
T18 peptide: ARESNGQVNAYNPSG
Procedure: as §1

[20] = molecular target: T19, IsaA oligopeptide SEQ ID NO: 35 (Staphylococcus aureus); test: as above
T19 construct: Synthetic 15-mer of IsaA, spotted on a glass slide
T19 peptide: SYNQGSDVQSVSYNA
Procedure: as §1

[21] = molecular target: T20, IsaA oligopeptide SEQ ID NO: 46 (Staphylococcus aureus); test: as above
T20 construct: Synthetic 15-mer of IsaA, spotted on a glass slide
T20 peptide: SNGNTAGATGSSAAQ
Procedure: as §1

[22] = molecular target: T21, IsaA oligopeptide SEQ ID NO: 45 (Staphylococcus aureus); test: as above
T21 construct: Synthetic 15-mer of IsaA, spotted on a glass slide
T21 peptide: SVRLSNGNTAGATGS
Procedure: as §1

[23] = molecular target: T22, IsaA oligopeptide SEQ ID NO: 24 (Staphylococcus aureus); test: as above
T22 construct: Synthetic 15-mer of IsaA, spotted on a glass slide
T22 peptide: DIHFVKDGFQYNFTS
Procedure: as §1

[24] = molecular target: T23, IsaA oligopeptide SEQ ID NO: 11 (Staphylococcus aureus); test: as above
T23 construct: Synthetic 15-mer of IsaA, spotted on a glass slide
T23 peptide: SLAVALGVTGYAAGT
Procedure: as §1

[25] = molecular target: T24, IsaA oligopeptide SEQ ID NO: 37 (Staphylococcus aureus); test: as above
T24 construct: Synthetic 15-mer of IsaA, spotted on a glass slide
T24 peptide: QSVSYNAQSSNSNVE
Procedure: as §1

[26] = molecular target: T25, IsaA oligopeptide SEQ ID NO: 15 (Staphylococcus aureus); test: as above
T25 construct: Synthetic 15-mer of IsaA, spotted on a glass slide
T25 peptide: HQAHAAEVNVDQAHL
Procedure: as §1

[27] = molecular target: T26, IsaA oligopeptide SEQ ID NO: 48 (Staphylococcus aureus); test: as above
T26 construct: Synthetic 15-mer of IsaA, spotted on a glass slide
T26 peptide: TGSSAAQIMAQRTGV
Procedure: as §1

[28] = molecular target: T27, IsaA oligopeptide SEQ ID NO: 27 (Staphylococcus aureus); test: as above
T27 construct: Synthetic 15-mer of IsaA, spotted on a glass slide
T27 peptide: FTSNGTTWSWSYEAA
Procedure: as §1

[29] = molecular target: T28, IsaA oligopeptide SEQ ID NO: 12 (Staphylococcus aureus); test: as above
T28 construct: Synthetic 15-mer of IsaA, spotted on a glass slide
T28 peptide: ALGVTGYAAGTGHQA
Procedure: as §1

[30] = molecular target: T29, recombinant IsaA protein of Staphylococcus aureus (29 kDa immunodominant antigen IsaA) (Staphylococcus aureus, UniProt Q2FV52 30-233, limits assumed); test: SPR (BIACORE 2000), biotinylated IsaA on streptavidin chip, antibody as analyte
T29 construct: Coated as rIsaA in the ELISA; In the first SPR experiment it was N-biotinylated with sulfo-NHS-LC-biotin (mostly at a single site) and immobilised on streptavidin; In the second SPR experiment it was the analyte in solution; also called rIsaA; 29 kDa IsaA antigen
T29 sequence (looked up): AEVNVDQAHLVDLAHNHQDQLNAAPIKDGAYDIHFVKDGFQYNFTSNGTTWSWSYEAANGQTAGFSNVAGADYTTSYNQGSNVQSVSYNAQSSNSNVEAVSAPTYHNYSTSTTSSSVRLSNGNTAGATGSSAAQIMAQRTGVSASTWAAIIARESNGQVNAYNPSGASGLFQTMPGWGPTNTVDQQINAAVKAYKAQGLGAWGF
Procedure: The amount of the immobilized antigen corresponds to about 100 resonance units [RU] measured by means of the BIACORE®2000 system.
Interaction analyses were performed using HBS150 buffer (10 mM HEPES pH7.4, 150 mM NaCl, 3.4 mM EDTA). Sensorgrams were recorded at a flow rate of 10 μl/min at 25° C. The association and dissociation time was set to 10 min. The chips were regenerated after each cycle with different regeneration solutions (A: 1 mM CH₃COOH, 1 M NaCl, pH 3; B: 4 M MgCl₂; C: 1 mM CH₃COOH, 1 M NaCl, 6 M Urea, pH 3) for 2 min.

Molecule: control antibodies (peptide array) (antibody)
- Binding (fluorescence intensity) [1]: 367
- Binding (fluorescence intensity) [2]: 18.7
- Binding (fluorescence intensity) [3]: -7
- Binding (fluorescence intensity) [4]: -20
- Binding (fluorescence intensity) [5]: 117
- Binding (fluorescence intensity) [6]: 77.3
- Binding (fluorescence intensity) [7]: 85.7
- Binding (fluorescence intensity) [8]: -27
- Binding (fluorescence intensity) [9]: -14.3
- Binding (fluorescence intensity) [10]: -35

B1: monoclonal antibody MAB-UK-66 secreted by hybridoma cell line DSM ACC2987 (antibody, V domains shown)
VH: DVKLVESGGGLVKLGGSLKLSCSASGFTFSNYYMSWVRQTPEKRLELVADINGNGGSTYYPDTVKGRFTISRDNAKNTLYLQMSSLKSEDTALYYCVRRGGYYALDYWGQGTTVTVSS
VL: DVVMTQTPLSLPVSLGDQASISCRSSQSLVHINGNTYLHWYLQKPGQSPKLLIYRVSNRFSGVPDRFSGSGSGTDFTLKISRVEAEDLGVYFCSQSTHVPWTFGGGTKLELKR
notes: Monoclonal mouse antibody from a hybridoma; Detected with anti-mouse IgG; also called antibodies secreted by cell line DSM ACC2987; anti-IsaA MAB
- Binding (fluorescence intensity) [1]: 5750
- Binding (fluorescence intensity) [2]: 3070
- Binding (fluorescence intensity) [3]: 1670
- Binding (fluorescence intensity) [4]: 2940
- Binding (fluorescence intensity) [5]: 1950
- Binding (fluorescence intensity) [6]: 3170
- Binding (fluorescence intensity) [7]: 2490
- Binding (fluorescence intensity) [8]: 6010
- Binding (fluorescence intensity) [9]: 2740
- Binding (fluorescence intensity) [10]: 3190
- Binding (fluorescence intensity) [11]: 371
- Binding (fluorescence intensity) [12]: 285
- Binding (fluorescence intensity) [13]: 31900
- Binding (fluorescence intensity) [14]: 16800
- Binding (fluorescence intensity) [15]: 59500
- Binding (fluorescence intensity) [16]: 399
- Binding (fluorescence intensity) [17]: 579
- Binding (fluorescence intensity) [18]: 29500
- Binding (fluorescence intensity) [19]: 570
- Binding (fluorescence intensity) [20]: 506
- Binding (fluorescence intensity) [21]: 587
- Binding (fluorescence intensity) [22]: 235
- Binding (fluorescence intensity) [23]: 9360
- Binding (fluorescence intensity) [24]: 101
- Binding (fluorescence intensity) [25]: 139
- Binding (fluorescence intensity) [26]: 11700
- Binding (fluorescence intensity) [27]: 1170
- Binding (fluorescence intensity) [28]: 442
- Binding (fluorescence intensity) [29]: 680
- koff [30]: < 1e-05 s⁻¹
